Data on 1 molecule can be found in patent US12098176B2, “Keratin BD-4, preparation method, and pharmaceutical composition and use thereof” (Institute of Materia Medica, Chinese Academy of Medical …, priority 2019, dated 2024).

The test system of this test is PLO-induced epilepsy in mice. Briefly: Pilocarpine (PLO) induced convulsive epilepsy in mice. Type of test: in vivo, mouse. The settings on record: for Grade IV seizure rate / mortality rate: 10 mice; for Grade IV seizure rate / mortality rate / Number of deaths / Number of Grade IV cases: PLO 225 mg/kg i.p.; for Number of deaths / Number of Grade IV cases: of 10 mice; for Number of Grade IV cases: 30 min observation; for Level II onset incubation period / Level III onset incubation period / Level IV onset incubation period: mean ± SEM; for Level IV onset incubation period: no grade IV attack recorded as 1800 s. Here is the method:
Experimental example 3 The pharmacodynamic test of protein BD-4 (Example 4 protein) on convulsive epilepsy in mice caused by the convulsion agent Pilocarpine (PLO)
Model group: • Diazepam (Diazepam) 2 mg/kg group; • Protein BD-4, 50 mg/kg group, 200 mg/kg group. Method: Model Preparation and Administration:
The drug was administered once in the afternoon the day before modeling, PLO-225 mg/kg (modeling agent) was injected intraperitoneally 1 hour after the test drug was given to the stomach on the day of modeling. And positive drug can be administered once 20 minutes before modeling. Observe for 30 minutes after PLO injection.
Observation indicators: 1) Seizure situation: the time of seizures from grade II to grade IV; 2) the time to death.
Attack level: Refer to Racine grading standard: Level 0: No response; Grade I: manifested as twitching of facial muscles or the corners of the mouth; Level II: can nod; Level III: Twitching of one limb; Grade IV: rigidity or body twitching; Grade V: generalized epilepsy (generalized tonic seizures).
Count the number of grade IV seizures and deaths in each group of mice in the experiment; Level II, III and IV incubation period. […] Chi-square test was used for statistics of the number of cases. The mean value and standard error of the incubation period were calculated, and TTEST was used to compare the model group with other groups. P<0.05 was considered as a significant difference.

B1: BD-4: recombinant keratin, amino acid sequence SEQ ID NO: 1, expressed in E. coli; the protein of Example 4 was tested (protein, listed as Bos taurus)
chain: MSYSCCLPNLSFRSSCSSRPCVPSSCCGTTLPGACNIPANVGSCNWFCEGSFNGSEKETMQFLNDRLASYLEKVRQLERDNAELESRILERSQQQEPLVCPNYQSYFRTIEELQQKILCSKSENARLVVQIDNAKLASDDFRTKYETEVSLRQLVEADLNGLRRILDELTLCKSDLEARVESLKEELICLKQNHEQEVNTLRSQLGDRLNVEVDAAPTVDLNRVLNETRAQYEALVETNRRDVEEWYIRQTEELNKQVVSSSEQLQSYQAEIIELRRTVNALEVELQAQHNLRDSLENTLTETEARYSCQLAQVQGLIGNVESQLAEIRSDLERQNQEYQVLLDVRARLECEINTYRGLLDSEDCKLPCNPCATTNACERPCISNPCVSRARCGPCNTFVH
As for B1, under “50 mg/kg”, the “Epilepsy grade II incubation period, comparison with model group” value is recorded as “statistically different from the model group”; the “Epilepsy grade III incubation period, comparison with model group” value was “statistically different from the model group”; the “Level II onset incubation period” value worked out at 95 ± 3 s; the “Level III onset incubation period” value came out at 162 ± 5 s. Further, the “Level IV onset incubation period” value (50 mg/kg) turned out to be 974 ± 192 s. Further, under “50 mg/kg gavage”, the “Grade IV seizure rate” value is on record as 70%, the mortality rate was 0, the Number of deaths came to 0 and the “Number of Grade IV cases” value turned out to be 7. Moreover, for the setting “200 mg/kg”, the “Epilepsy grade III incubation period, comparison with model group” value is “statistically different from the model group”; the “Level II onset incubation period” value is recorded as 95 ± 6 s; the “Level III onset incubation period” value came out at 184 ± 17 s; the “Level IV onset incubation period” value came out at 765 ± 135 s. Further, under “200 mg/kg gavage”, the “Grade IV seizure rate” value is recorded as 90%, the mortality rate is listed as 10%, the Number of deaths is on record as 1 and the “Number of Grade IV cases” value turned out to be 9.
